Key:
CREB = test: CAT reporter assay CREB/CRE-tk-CAT in HeLa cells, with and without forskolin; assay type: cell-based; conditions: without and with 1 μM forskolin
Experimental: (§1) Lipofectin (GibcoBRL) was selected for transfection of Hela cells.
The CAT activity of the reporter was determined.

hPR = target: T1, hPR (Homo sapiens, UniProt P06401); test: Transient transfection CAT reporter assay, hPRB with PRE2-TATA-CAT in HeLa cells; assay type: cell-based
T1 construct: expressed in transfected cells; host or cells: HeLa
T1 sequence (P06401 1-933): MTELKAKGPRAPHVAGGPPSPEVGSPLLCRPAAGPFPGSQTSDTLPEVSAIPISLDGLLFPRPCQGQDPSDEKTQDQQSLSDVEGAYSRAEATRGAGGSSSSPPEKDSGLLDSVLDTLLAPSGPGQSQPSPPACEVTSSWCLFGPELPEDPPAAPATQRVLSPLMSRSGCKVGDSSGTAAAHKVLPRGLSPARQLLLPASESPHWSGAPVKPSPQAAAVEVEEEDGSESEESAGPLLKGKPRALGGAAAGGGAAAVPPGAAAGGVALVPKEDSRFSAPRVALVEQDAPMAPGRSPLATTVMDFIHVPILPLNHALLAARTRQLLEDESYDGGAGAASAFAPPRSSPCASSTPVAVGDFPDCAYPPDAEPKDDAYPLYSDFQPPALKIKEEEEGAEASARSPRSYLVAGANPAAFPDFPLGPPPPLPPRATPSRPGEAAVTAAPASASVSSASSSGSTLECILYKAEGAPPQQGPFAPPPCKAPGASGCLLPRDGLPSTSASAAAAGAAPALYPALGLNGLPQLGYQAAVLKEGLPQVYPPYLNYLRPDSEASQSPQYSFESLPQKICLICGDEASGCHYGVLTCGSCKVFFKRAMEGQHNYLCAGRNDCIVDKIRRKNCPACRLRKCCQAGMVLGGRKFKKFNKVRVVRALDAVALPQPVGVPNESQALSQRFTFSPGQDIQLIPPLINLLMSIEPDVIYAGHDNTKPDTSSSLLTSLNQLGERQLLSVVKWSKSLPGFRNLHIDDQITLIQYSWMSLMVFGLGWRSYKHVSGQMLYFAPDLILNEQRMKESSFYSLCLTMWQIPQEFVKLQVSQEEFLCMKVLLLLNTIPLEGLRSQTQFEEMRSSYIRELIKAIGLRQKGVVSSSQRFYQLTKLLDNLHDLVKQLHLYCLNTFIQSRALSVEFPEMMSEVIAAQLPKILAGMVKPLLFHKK
Experimental: as §1
To further investigate the role of SRC-1 in receptor transactivation of target gene expression, transient transfection assays were carried out in mammalian cell lines. HeLa cells were cotransfected with mammalian expression vectors for full-length SRC-1 and hPRB together with a plasmid containing two copies of the progesterone-responsive DNA element (PRE) inserted in front of the TATA box of the E1b adenovirus, linked to the chloramphenicol acetyl transferase (CAT) reporter gene, PRE2-TATA-CAT.
Cells were harvested 42 h after transfection and the chloramphenicol acetyl transferase (CAT) activity determined using 8 μg of protein extract.

B1: steroid receptor coactivator-one (SRC-1), full-length (protein)
chain: MSIPRVNPSVNPSISPAHGVARSSTLPPSNSNMVSTRINRQQSSDLHSSSHSNSSNSQGSFGCSPGSQIVANVALNKGQASSQSSKPSLNLNNPPMEGTGISLAQFMSPRRQVTSGLATRPRMPNNSFPPNISTLSSPVGMTSSACNNNNRSYSNIPVTSLQGMNEGPNNSVGFSASSPVLRQMSSQNSPSRLNIQPAKAESKDNKEIASTLNEMIQSDNSSSDGKPLDSGLLHNNDRLSDGDSKYSQTSHKLVQLLTTTAEQQLRHADIDTSCKDVLSCTGTSNSASANSSGGSCPSSHSSLTARHKILHRLLQEGSPSDITTLSVEPDKKDSASTSVSVTGQVQGNSSIKLELDASKKKESKDHQLLRYLLDKDEKDLRSTPNLSLDDVKVKVEKKEQMDPCNTNPTPMTKATPEEIKLEAQSQFTADLDQFDQLLPTLEKAAQLPGLCETDRMDGAVTSVTIKSEILPASLQSATARPTSRLNRLPELELEAIDNQFGQPGTGDQIPWTNNTVTAINQSKSEDQCISSQLDELLCPPTTVEGRNDEKALLEQLVSFLSGKDETELAELDRALGIDKLVQGGGLDVLSERFPPQQATPPLIMEERPNLYSQPYSSPFPTANLPSPFQGMVRQKPSLGTMPVQVTPPRGAFSPGMGMQPRQTLNRPPAAPNQLRLQLQQRLQGQQQLIHQNRQAILNQFAATAPVGINMRSGMQQQITPQPPLNAQMLAQRQRELYSQQHRQRQLIQQQRAMLMRQQSFGNNLPPSSGLPVQTGNPRLPQGAPQQFPYPPNYGTNPGTPPASTSPFSQLAANPEASLANRNSMVSRGMTGNIGGQFGTGINPQMQQNVFQYPGAGMVPQGEANFAPSLSPGSSMVPMPIPPPQSSLLQQTPPASGYQSPDMKAWQQGAIGNNNVFSQAVQNQPTPAQPGVYNNMSITVSMAGGNTNVQNMNPMMAQMQMSSLQMPGMNTVCPEQINDPALRHTGLYCNQLSSTDLLKTEADGTQQVQQVQVFADVQCTVNLVGGDPYLNQPGPLGTQKPTSGPQTPQAQQKSLLQQLLTE
effect on basal and forskolin-stimulated transcriptional activities of CREB (CREB): did not affect | effect on reporter construct activity in the absence of PR binding site (hPR; ERE2-TATA-CAT reporter with hPRB, with or without ligand): no effect | effect on PR transcriptional activity (hPR; HeLa cells, 3 μg SRC-1, R5020 2×10^−8 M, PRE2-TATA-CAT): enhance | effect on RU486-antagonized receptor transcriptional activity (hPR; HeLa cells, SRC-1 coexpressed, R5020 plus RU486): unable to augment and/or recover to any extent | induction over the hormone-induced receptor activity (hPR; HeLa cells, full-length SRC-1 cDNA (3 μg) coexpressed with hPR, 2×10^−8 M R5020, mean of seven experiments ± SEM): 14.0±3.3 fold | activity of ligand-free hPR on the reporter (hPR; HeLa cells, no hormone, in the absence or presence of SRC-1): minimal activity | enhancement of hormone-induced transcriptional activity (hPR; coexpression of SRC-1 with receptor in mammalian cells, summary statements): > 10 fold

Source: patent US6380373B1, “Steroid receptor coactivator compositions and methods of use” (Baylor College of Medicine, priority 1995, dated 2002)
